Source: the nanobody polyreactivity screen of Harvey et al. (2022)

Test: yeast display, Sf9 membrane polyspecificity reagent, FACS + sequencing; frameworks hold sequencing errors
Procedure, shortened: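 After 36–48 hours of galactose induction, yeast (Saccharomyces cerevisiae BJ5465) displaying a synthetic nanobody library were stained at 4 °C for 1 hour with 10% biotinylated, detergent-solubilized Sf9 membrane reagent. Streptavidin microbeads enriched the stained cells before FACS sorting into low and high (top ~1%) gates on anti-HA and streptavidin fluorescence. Each clone's polyreactivity label reflects its gate of origin.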

Sequence | polyreactivity (PSR sort gate)
QVQLVESGGGLDQAGGSLRLSCAASGITFTFNAMGWYRQAPGKERELVAAISSTTSTKYADSVKGRFTISRDNAKYTVYLQMNSLKPEDTAVYYCAAVEFELRGDYWGQGTQVTVSS | low polyreactivity
QVQLVESGGGLVQAGGSLRLSCAASGSIFGWYAMGWYRQAPGKERELVAGISWSGANTYYADSVKGRFTISRDNAKNTVYLQMNSLKPEDTAVYYCAAGPGLYYSRRYGYWGQGTQVTVSS | high polyreactivity
QVQLVESGGGLVQAGGSLRLSCAASGLIFAYNTMGWYRQAPGKERELVAGITSGGSTYYADSVKGRFTISRDNAKNTVYLQMNSLKPEDTAVYYCAAAYRTGSVSFGYWGQGTQVTVSS | high polyreactivity
QVQLVESGGGLVQAGGSLRLSCAASGFTFRQNSIGWSRQAPGKERELVAAISRSGSRTYYADSVKGRFTISRDNAKNTVYLQMIRLKPEDTAVYYCKAVFSSFTVEYYWGQGTQVTVSS | high polyreactivity
QVQLVESGGGLVQAGGSLRLSCAASGSTFQTYAMGWYRQAPGKERELVAAITSGGSTNYADSVKGRFTISRDNAKNTVYLQMNSLKPEETAVYYCAVRQIYQTSDHRLQYDYWGQGTQVSVSS | low polyreactivity
QVQLVESGVRLVQAGGSHRLSCAANGFIFRRYAMGWYIQAPGKERELVAAITRSGGTTYYADSVKGRFTISRDNAKNTVYFQLNSLKPEDTAVYYCDARRPYTYDSGDILEMDHWGQGTQVTVSS | high polyreactivity
QVQVVESGGGLVQAGGSLRLSCAGSGSIFRVYAMGWYRQAPGKVREWVASISRRGGSTYYADSVKGRFTISRDNAKNTVYLQMNSLKPEDTAVDYCAAEFVIGGHGYDYWGQGTQVTVSS | high polyreactivity
QVQLVESGGGLVQARGSLRLSCAASGSTSTYYAMGWYRQAPGKERELVAAITSSVGSTHYADSVKGRFTISRDNAKNTVYLQMNSLKPEDTAVYYCAATFGYGRYGYWGQGTQVTVSS | low polyreactivity
QVQLVESGGGLVQAGGSLRLSCAASGRIIRQYAMGWYRKAPGKERELVAVISAGGARTYYADSVKGRFTISRDNAKNTVYLQMNSLKPEDTEVYYCAAELPTSQYDYYYWGQGTQVTVSS | high polyreactivity
QVQHVESGGGIVQAGGSLRLSCAASVRTIPYNAMGRYRQAPGKERELVAAISTGGSTNYADSVKGRFTISRDNAKNTVYLQMNSLKPEDTAVYYCNTRYRWARNWAYYYWGQGTQVTVSS | high polyreactivity
QVQLVESGGGLVQAGGSLRLSCAASGSTFYLYAMGWYRQAPGKERELVASITYSGASTYYADSVKGRFTISRDNAKNTVYLQMNSQKPEDTAVYYCAADQRGWFAVGSQRKYNYWGQGTQVTVSS | low polyreactivity
QVQLVESGGGLVQAGGSLRLSCAAYGIIIGNNAMGCYRQAPGKERELVAAISRRGGSTYYADSVKGRFTISRDNAKNTVYLQMNSLKPEDTAVYYCAADIYRYNSYDYWGQGTQVTVSS | low polyreactivity
QVQLVESGGGLDQAGGSLRLSCAASGRTFIAYARGWYRQAPGKERELVAAITSSGGSTNYADSVKGRFTISRDNAKNTVYLQMNSLKPEDTAVYYSATDIYECPYFYYSYYYWGQGTQVTVSS | low polyreactivity
QVQLVESGGGLVQAGGSLRLSCAASGFTFALYAMGWYRQAPGKERELVAAISSSGGSTYYADSVKGRFTISRDNAKNTVYLQMNSLKPEDTAVYYCNATRPYRYQSHTRTPRRGYWGQGTQVTVSS | high polyreactivity
QVQLVESGGGLVHAGGSLRLSCAASGRTFAQNAMRRYRQAPWKERELVAAIRNGGRTNYADSVKGLFTISRDNAKNTVYLQMNSLKPEDTAVYYCAVKFNNRAKYGYWGQGTQVTVSS | high polyreactivity
QVQLVESGGGLVQAGGSLRISCAASGFTFRSYSMGWYRQAPGKERELVAAITSTGGRTYYADSVKGRFTISRDNAKNTVYLQMNILNPEDTAVYYWAAGRKHFGPVHFGYWGQGTQVTVSW | high polyreactivity

Sequence | polyreactivity (PSR sort gate)
QFQLVDSGGGLVQAGGSLRLSCAASGRIFSTNAMGWYRLAPGKEWELDAAINWSTGSYVLRRSVKGRFTISRDNAKNTVYLQMNSLKTEDTAVYYCAARVTVVGDYYWGQGTQVTVSS | high polyreactivity
QVQLVESWGGLVQAGGSLRLSCAASGSTFRPYAMGWYRQAPGKERELVAAFRSGRTSYADSVKGRFTISRDNAKNTVYLQMNSLKPEDTAVYYCAKASRGGYYWGQGTQVTVSS | high polyreactivity
QDQLVESGGGLVQAGVSLRLSCAASGSIIGSYAMGWYREAPAKERELVAAITRSGSRTYYADSVKGRFTISRDNAKNTVYLQINSLKPEDTAVYYCATGYPGGFDYWGLGTQVTVSS | high polyreactivity
QVQLVESGGGLVQAGGSLRLSCAASGIILDHYAMGWYRQAPGKERELVAAISSGTRTNYADSVKGRFTISRDNAKNTVYLQMNSLKPEDTAVYYCAATIYRRYRSKSSITSYWGQGTQVTVSS | high polyreactivity
QVQLVESGGGLVQAGGSLRLSCAASGNTFIYYGMGWYRQAPGKERELVAAITWSGGSTYYADSVKGRFTISRDNAKNTVYLQMNSLKPEETAVYYCAKFTHNYYYWGQGTQVTVSS | high polyreactivity
QVQLVESVGGLVQAGDSLPLSCAPSAYIFRAYAMGWFRQAPGKASELVAAISSRGGSTYYADSVKGRFTISRDNATQTVYLQMNSLKPEDTAVYYCAAAYRQPYIGYGYWGQGTQVTVTS | high polyreactivity
QVHLQESGDGLLQAVGSLRLSCAASGYISGYYYRGWYRQAPGKERELVAGIDAFGSSTNYADCVKGRFTISRDNSTNTVYLQMNSLKPEDTAVYYWAARPDGDRLFSYWGQGTQVTVSS | low polyreactivity
QVQLVESGGGLVQAGGSLRLSCAASGRTFSGYAMGWYRQAPGKERELVAAITSSGSSTYYADSVKGRFTISRDNAKNTVYLQMNSLKPEDTAVYYCAATPQAHSERYYYQRKYDYWGQGTQVTVSS | low polyreactivity
QVQLVESGGGLVQAGGSLRLSCAASGSIFGYYAMGWYRQAPGKERELVAAISRGGRTNYADSVKGRFTISRDNAKNTVYLQMNSLKPEDTAVYYCAAESYRAYKYDYWGQGTQVTVSS | low polyreactivity
QVQLVESGGGLVQAGGSLRLSCAASGSTFDSYARVWYRQAPGKETELVARISIVGSTNYADSVKGRFTISRANAKNTVYLQMNCLKPDDTAVYYCAADRDWQYSFRHSVYGYDYDYWGQGTLVTVSS | low polyreactivity
QVQLVESGGGLVQAGGSLRLSCAASGGTFGSNTMGWYRQAPGKERELVAAITSGVSTNYADSVKGRFTISRDNAKNTVYLQMNSLKPEDTAVYYCAKDLWSEEYETIITSYGFDYWGQGTQVTVSS | low polyreactivity
QVQLVESGGGLVQAGGSLRLSCAASGSIFSTNAMGWYRQAPGKERELVAGISSDDSTYADSVKGRFTISRDNAKNTVYLQMNSLKQADTAVYYCAAEDNWYNVGYYYWGQGTQVTVSS | low polyreactivity
QVQLVESGGGLVQAGGSLRLSCAASGSIFDWNGMGWYRQAPGKERELVAAITWRGGRTYYADSVKGRFTISRDNAKNTVYLQMNSLKPEDTAVYYCAATRFFYSRYNYWGQGTQVTVSS | high polyreactivity
QVQLVESGGGLVQAGGSLRLSCAASGSTFLTYAMGWYRQAPGKERELVAAIRWSGGSTYYADSVKGRFTISRDNAKNTVYLQMNSLKPEDTAVYYCAARSPRASGNSDYWGQGTQVTVSS | high polyreactivity
QVQLVESGGGLVQAGGSLRLSCAASGFIFYKYAMGWYRQAPGKERELVAGITWNVGSTYYADSVKGRFTISRDNAKNTVYLQMNSMKPEDTAVYYCAARHSYLGGTISLLYDYWGQGTQVTVSS | low polyreactivity
QVQLVESGGGLVQAGGSLRLSCAASGRIFKRYDMGWYRQAPWKERELVAAITGTGGSTYYADSVKGRFTISRDNAKNTVYLQMNSLKPEDTAVYYCAARLYNTYSGFAFGYWGQGTQVTVSS | high polyreactivity
